Literature values, collected in publication PMC6426755.
pKd: −log10 of the molar value.

Target: CCL21 (Homo sapiens) (UniProt O00585)
Assay: SPR (Biacore)

Sequence of UniProt O00585 (O00585 24-134): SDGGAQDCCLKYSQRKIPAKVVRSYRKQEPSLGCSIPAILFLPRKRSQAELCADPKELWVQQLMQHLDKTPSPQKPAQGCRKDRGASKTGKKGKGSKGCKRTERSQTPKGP

For podoplanin (from UniProt Q86YL7), the pKd is given as 7.15.
